Assay results published in the supplement of paper PMC10899765.

How the values were obtained:
Conditions in all cases: 20 nM; 72 h
MCF10A [1] = assay: percent viability (nuclei count relative to siNT); higher = more viable cells
Procedure: (§1)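 After 72 h, cells were fixed and stained with Hoechst and anti-fibrillarin, and nucleoli per nucleus were counted with CellProfiler. Values are plate-adjusted percent effect for the one-nucleolus and 5+ nucleoli phenotypes, normalised to siNT (0%) and to the positive controls siNOL11 or siKIF11 (100%), as the mean of biological triplicates. Percent viability is the nuclei count relative to siNT.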

MCF10A [2] = assay: 5+ nucleoli phenotype percent effect (relative to siNT 0% and siKIF11 100%); higher = more cells with five or more nucleoli
Procedure: as §1

MCF10A [3] = assay: one-nucleolus phenotype percent effect (relative to siNT 0% and siNOL11 100%); higher = more cells with one nucleolus (ribosome biogenesis inhibition)
Procedure: as §1

Sequence	percent viability (MCF10A [1])	5+ nucleoli phenotype percent effect (MCF10A [2])	one-nucleolus phenotype percent effect (MCF10A [3])
AAAUGUCACCUUUUUGAGAGGA [hsa-miR-513b-3p]	94.2%	-25.5%	-7.38%
AUAGUGGGAAGCUGGCAGAUUC [hsa-miR-4727-3p]	16.6%	-30.8%	52.3%
AAAAGUAAUUGUGGUUUUUGC [hsa-miR-548ay-5p]	134%	28.7%	-28.5%
ACUGCUGAGCUAGCACUUCCCG [hsa-miR-93-3p]	33.2%	-7.82%	0.758%
UCUAGAGGAAGCACUUUCUGUUU [hsa-miR-520g-5p]	67.5%	34.9%	-24.2%
AGAGUUAACUCAAAAUGGACUA [hsa-miR-4424]	51.7%	6.94%	-9.95%
UCUGGGAGGUUGUAGCAGUGGAA [hsa-miR-3192]	14.6%	-19.2%	62.5%
AGUUCUUCAGUGGCAAGCUUUA [hsa-miR-22-5p]	75.4%	24%	3.93%
GUGCAUUGCUGUUGCAUUGC [hsa-miR-33b-5p]	48.5%	36%	-2.4%
UCACUCUCACCUUGCUUUGC [hsa-miR-4639-3p]	63%	3.2%	-11.5%
UUGGCUGGUCUCUGCUCCGCAG [hsa-miR-6842-3p]	24.9%	-0.515%	19.7%
UGGGGAAGGCGUCAGUGUCGGG [hsa-miR-4725-3p]	28.1%	-3%	26%
UAGGUGGCGCCGGAGGAGUCAUU [hsa-miR-6815-5p]	13.2%	-6.84%	20.3%
GAACGCGCUUCCCUAUAGAGGGU [hsa-miR-523-3p]	119%	23.3%	-18.2%
CAUUCAACUAGUGAUUGU [hsa-miR-4272]	170%	33.7%	-23.4%
AAGACUGAGAGGAGGGA [hsa-miR-4499]	123%	3.14%	-14%
ACGCCCUUCCCCCCCUUCUUCA [hsa-miR-1249]	85.3%	29.3%	-13.3%
UCACAAAUCUAUAAUAUGCAGG [hsa-miR-4719]	149%	40.1%	-19.7%
CAAAGUGCUCAUAGUGCAGGUAG [hsa-miR-20b-5p]	58.4%	9.26%	-12%
GAAGGCAGCAGUGCUCCCCUGU [hsa-miR-3714]	9.1%	-29.2%	19.5%
GAAUCGGAAAGGAGGCGCCG [hsa-miR-3610]	93.4%	19.9%	-7.32%
UGAGUGUUGUCUACGAGGGCA [hsa-miR-3659]	59%	21.3%	-0.683%
AAAAGCUGGGUUGAGAGGGCAA [hsa-miR-320b]	59%	-10.2%	8.28%
UUAGCGGUGGACCGCCCUGCG [hsa-miR-4321]	47%	3.56%	-12.2%
